pKd: −log10 of the molar value.
Molecular target: Biotinylated Xenopus laevis XRCC4-Avitag (Xenopus laevis)
Experiment: BLI

pKd: 6.55
Substance: Xenopus laevis XLF^1-226 (C-terminally truncated XLF) (from UniProt A0A1L8ENT6 1-226) (domain or fragment)

Reference: PMC6128732
